Laboratory results as given in patent US20110020346A1.
pKd: −log10 of the molar value.

Assays:
mouse VEGF-A165 (mouse) = mouse VEGF-A165 (mouse) (UniProt Q00731); assay: ELISA with purified Fab (direct on coated antigen or solution binding), 25 C
[1] = target: T1, murine VEGF (mVEGF) (mouse) (UniProt Q00731); assay: method not stated, 25 C, unpublished results
T1 sequence (looked up): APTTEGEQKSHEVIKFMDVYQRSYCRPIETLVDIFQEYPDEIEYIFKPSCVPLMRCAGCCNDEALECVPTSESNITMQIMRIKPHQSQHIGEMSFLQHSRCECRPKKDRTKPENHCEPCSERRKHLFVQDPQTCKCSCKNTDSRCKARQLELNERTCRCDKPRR

Sequence of Y0317 Fab (VH): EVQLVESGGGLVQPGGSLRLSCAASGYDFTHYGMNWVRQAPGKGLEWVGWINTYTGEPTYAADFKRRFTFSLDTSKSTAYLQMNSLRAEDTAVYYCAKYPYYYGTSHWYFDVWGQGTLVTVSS
Sequence of Y0317 Fab (VL): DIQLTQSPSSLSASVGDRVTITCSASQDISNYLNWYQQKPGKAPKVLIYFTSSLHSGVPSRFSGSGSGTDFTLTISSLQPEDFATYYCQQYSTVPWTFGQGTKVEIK

Row | value printed without a name (ELISA) (mouse VEGF-A165 (mouse)) [nM] | pKd [1] | Substance
1 | 0.6 |  | G6 Fab
2 |  | 6.52 | Y0317 Fab
